Test results reported in US20190241653A1 (NATIONAL RESEARCH COUNCIL OF CANADA, published 2019).

Legend:
[1] = biological target: T1, receptor(s) of FC5 on HBEC-D3 cells (human microvascular brain endothelial cells) (human, UniProt Q9NV96 2-361); experiment: Mirrorball microplate cytometry on HBEC-D3 cells in suspension, anti-c-myc Alexa 488 detection
T1 construct: whole, on cells; The assay used whole, untransfected endothelial cells; also called human brain endothelial cells; TMEM30A
T1 sequence (looked up): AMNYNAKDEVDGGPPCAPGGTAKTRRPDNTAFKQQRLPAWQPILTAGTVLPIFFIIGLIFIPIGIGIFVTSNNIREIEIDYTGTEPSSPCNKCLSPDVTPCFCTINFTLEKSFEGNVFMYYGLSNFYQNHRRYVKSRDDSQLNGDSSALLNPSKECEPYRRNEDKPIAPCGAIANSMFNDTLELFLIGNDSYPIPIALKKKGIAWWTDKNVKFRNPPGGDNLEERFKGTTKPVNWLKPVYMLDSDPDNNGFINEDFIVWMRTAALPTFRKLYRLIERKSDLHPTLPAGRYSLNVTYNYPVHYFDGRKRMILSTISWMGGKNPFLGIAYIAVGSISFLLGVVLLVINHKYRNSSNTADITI
Procedure: Mirrorball 6 High Sensitivity Microplate Cytometry (TTP Labtech): All buffers and reagents were pre-chilled to 4° C. […] mM EDTA and Mirrorball assay buffer—Live Cell Imaging Solution, LCIB (Invitrogen, 140 mM NaCl, 2.5 mM KCl, 1.8 mM CaCl₂, 1.0 mM MgCl₂, 20 mM Hepes, pH 7.4, mOsm=300). A 20 μl volume of a 1:1 mix of LCIB and 0.5×PBS/2.5 mM EDTA was added to all wells of each 384 well Mirrorball assay plate (Corning 3712); with the exception of row A which received 40 μl of 1000 nM test VHH antibody. Serial dilutions were prepared for each test variant within the Mirrorball 384 well assay plate. A 16-channel Finn pipette (Thermo Scientific) was used to transfer 20 μl of VHH antibody from row A-columns 1-24 into row B-columns 1-24 mixing 8×, then transferring 20 μl of VHH antibody from row B-columns 1-24 into row C-columns 1-24 mixing 8×. Dilutions were repeated until row G-columns 1-24 to create 7 point curve for each VHH antibody variant. A second set of test VHH antibody variants (1000 nM) were added to row I-columns 1-24 and the dilution protocol was repeated until row 0-columns 1-24. Row H-columns 1-24 were reserved on each plate for the reference FC5-H7 VHH single domain antibody. Row P-columns 1-24 received no antibody; this was background control for non-specific binding of the secondary to the cells of interest; thus 48 variants could be tested on each 384 well Mirrorball assay plate. Immortalized adult rat brain microvascular endothelial cells (SV-ARBEC) and/or human microvascular brain endothelial cells (HBEC-D3) were dissociated in Accutase solution (Sigma Aldrich) to generate single cell populations. Cells were washed in LCIB then centrifuged at 200×g, 5 min to pellet. Wash buffer was removed and the cell pellet was re-suspended into 1 mL of LCIB. Cell number was calculated using a Bio-Rad TC20 automated cell counter with Trypan Blue dye to assess viability. The cells were diluted to 350,000 live cells/ml using LCIB. A fluorescent conjugate c-myc Alexa 488 detection antibody (1600 ng/ml, Santa Cruz Biotechnology) supplemented with Draq 5 nuclear stain (2 uM, Cell Signaling) was prepared in LCIB assay buffer.

[2] = biological target: receptor(s) of FC5 on SV-ARBEC cells (SV40-immortalized adult rat brain microvascular endothelial cells) (rat) (UniProt Q6AY41); experiment: Mirrorball microplate cytometry on SV-ARBEC cells in suspension, anti-c-myc Alexa 488 detection

B1: FC5-H1 (VHH)
VHH: EVQLVESGGGLVQPGGSLRLSCAASGFKITHYTMGWVRQAPGKGLEWVSRITWGGDNTFYSNSVKGRFTISRDNSKNTLYLQMNSLRAEDTAVYYCAAGSTSTATPLRVDYWGQGTLVTVSS
notes: Humanized variant of FC5, expressed with His5 and c-myc tags; not shown: His5 and c-myc tags
[1]
  HBEC-D3 binding (MMFI at 1.3 µM antibody): 66.4 MMFI
[2]
  SV-ARBEC binding (MMFI at 1.3 µM antibody): 27 MMFI

B2: FC5-H2 (VHH)
VHH: EVQLVESGGGLVQPGGSLRLSCAASGFKITHYTMGWVRQAPGKGLEWVSRITWGGDNTFYSNSVKGRFTISRDNSKNTVYLQMNSLRAEDTAVYYCAAGSTSTATPLRVDYWGQGTLVTVSS
notes: as for B1
[1]
  HBEC-D3 binding (MMFI at 1.3 µM antibody): 31 MMFI
[2]
  SV-ARBEC binding (MMFI at 1.3 µM antibody): 23.1 MMFI

B3: FC5 VHH (parental camelid single domain antibody) (VHH)
VHH: DVQLQASGGGLVQAGGSLRLSCAASGFKITHYTMGWFRQAPGKEREFVSRITWGGDNTFYSNSVKGRFTISRDNAKNTVYLQMNSLKPEDTADYYCAAGSTSTATPLRVDYWGKGTQVTVSS
notes: Llama-derived VHH expressed in E. coli in fusion with His5 and c-myc tags; also called FC5 camelid; sdAb FC5; not shown: His5 and c-myc tags
[1]
  HBEC-D3 binding (MMFI at 1.3 µM antibody): 39.1 MMFI
[2]
  SV-ARBEC binding (MMFI at 1.3 µM antibody): 20.3 MMFI

B4: FC5-H7 (VHH)
VHH: EVQLVESGGGLVQPGGSLRLSCAASGFKITHYTMGWFRQAPGKEREFVSRITWGGDNTFYSNSVKGRFTISRDNSKNTLYLQMNSLRAEDTAVYYCAAGSTSTATPLRVDYWGQGTLVTVSS
notes: as for B1
[1]
  HBEC-D3 binding (MMFI at 1.3 µM antibody): 72.8 MMFI
[2]
  SV-ARBEC binding (MMFI at 1.3 µM antibody): 64.2 MMFI

B5: FC5-H3 (VHH)
VHH: EVQLVESGGGLVQPGGSLRLSCAASGFKITHYTMGWFRQAPGKGLEFVSRITWGGDNTFYSNSVKGRFTISRDNSKNTVYLQMNSLRAEDTAVYYCAAGSTSTATPLRVDYWGQGTLVTVSS
notes: as for B1
[1]
  HBEC-D3 binding (MMFI at 1.3 µM antibody): 43.9 MMFI
[2]
  SV-ARBEC binding (MMFI at 1.3 µM antibody): 40.2 MMFI
